Eight molecules from publication PMC9081242 (Structure (London, England : 1993), 2022) can be followed below.

Data set [1] addresses gCCM1 Q103R1 (single GlcNAc modifications, spin-labelled) (human) (UniProt P13688). The data set is described as follows: continuous-wave EPR.
Data set [2] has as its target cgCCM1 E5R1 (complex N-linked glycans, spin-labelled) (human) (UniProt P13688). The data set is described as follows: continuous-wave EPR.
The target of data set [3] is CCM1 D94R1 (non-glycosylated, spin-labelled) (human) (UniProt P13688). In words: continuous-wave EPR.
Data set [4] concerns the target gCCM1 E5R1 (single GlcNAc modifications, spin-labelled) (human) (UniProt P13688). The data set is described as follows: continuous-wave EPR.
The target of data set [5] is cgCCM1 Q103R1 (complex N-linked glycans, spin-labelled) (human) (UniProt P13688). In words: continuous-wave EPR.
Data set [6] deals with CCM1 E5R1 (non-glycosylated, spin-labelled) (human) (UniProt P13688). The data set is described as follows: continuous-wave EPR.
Data set [7] addresses CCM1 Q103R1 (non-glycosylated, spin-labelled) (human) (UniProt P13688). In words: continuous-wave EPR.
The data set “SEC” concerns the molecule itself. The data set is described as follows: SEC.

The molecule “gCCM1 Q103R1 (single GlcNAc modifications, spin-labelled) (from UniProt P13688 68-175) (domain or fragment)” came in with a stoichiometry N in data set [1] of 2.
The molecule “cgCCM1 E5R1 (complex N-linked glycans, spin-labelled) (from UniProt P13688 68-175) (domain or fragment)” showed a stoichiometry N in data set [2] of 2.
In turn, “CCM1 D94R1 (non-glycosylated, spin-labelled) (from UniProt P13688 69-175) (domain or fragment)” displayed a stoichiometry N in data set [3] of 2.
“gCCM1 E5R1 (single GlcNAc modifications, spin-labelled) (from UniProt P13688 68-175) (domain or fragment)”: the stoichiometry N in data set [4] was determined as 2.
“cgCCM1 Q103R1 (complex N-linked glycans, spin-labelled) (from UniProt P13688 68-175) (domain or fragment)” came in with a stoichiometry N in data set [5] of 2.
Regarding “CCM1 E5R1 (non-glycosylated, spin-labelled) (from UniProt P13688 69-175) (domain or fragment)”, in data set [6], the stoichiometry N is 2.
As for “CCM1 Q103R1 (non-glycosylated, spin-labelled) (from UniProt P13688 69-175) (domain or fragment)”, the stoichiometry N in data set [7] was found to be 2.

B1: non-glycosylated CEACAM1 N-terminal Ig-like domain (CCM1) (domain or fragment, human, UniProt P13688 35-141, looked up)
chain: QLTTESMPFNVAEGKEVLLLVHNLPQQLFGYSWYKGERVDGNRQIVGYAIGTQQATPGPANSGRETIYPNASLLIQNVTQNDTGFYTLQVIKSDLVNEEATGQFHVY
Turning to B1, in “SEC”, the “stoichiometry N” value is 2.

The term stoichiometry N denotes a count of units in the complex or per binding partner.
